Where a chain is given by its changes, count along the chain named. Each block holds one binder with its values, some of them ahead of it.
Assays:
[1] = biological target: T1, human CXCR3 (human, UniProt P49682 1-368); experiment: flow cytometry, antibody titration on CHO-CXCR3 cells
T1 construct: whole, on cells; also called hu-CXCR3; C-X-C chemokine receptor 3
T1 sequence (looked up): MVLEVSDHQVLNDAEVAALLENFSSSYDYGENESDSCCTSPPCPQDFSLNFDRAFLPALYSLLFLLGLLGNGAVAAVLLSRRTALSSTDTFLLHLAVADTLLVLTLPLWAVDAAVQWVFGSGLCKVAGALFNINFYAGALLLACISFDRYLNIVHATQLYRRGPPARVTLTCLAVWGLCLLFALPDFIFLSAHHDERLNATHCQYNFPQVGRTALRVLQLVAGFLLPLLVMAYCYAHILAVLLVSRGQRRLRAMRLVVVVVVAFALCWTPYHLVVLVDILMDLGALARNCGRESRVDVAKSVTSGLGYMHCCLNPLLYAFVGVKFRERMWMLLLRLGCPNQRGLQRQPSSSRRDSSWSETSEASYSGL
Description: In this example, CHO-CXCR3 cells were lifted from culture flasks using non-enzymatic Cell Dissociation Buffer-PBS based (Life Technologies #13151-014). Cells were resuspended in FACS Buffer (2% Fetal Bovine Serum in PBS) at 1×10⁶ cells/ml and 50 μl (0.5×10⁵ cells) were aliquoted into the wells of a 96-well plate. Plated cells were spun down and the supernatant discarded. Cells were resuspended in 30 μl FACS Buffer containing serially diluted concentrations of antibody in triplicate. Plates were incubated for 1 hr at 4° C. and then washed twice with FACS Buffer. Cells were resuspended in 50 μl goat anti-human IgG (γ-chain specific)-PE conjugated secondary antibody (Southern Biotech #2040-09) diluted 1:500 in FACS Buffer. Cells were further incubated for 30 min at 4° C. and then washed 1× with FACS Buffer. The cells were resuspended in a final volume of 30 μl FACS Buffer and analyzed using the Intellicyt Flow Cytometer. Median fluorescence in the FL-2H channel was determined using FlowJo software and EC₅₀ value was determined by plotting the data in GraphPad Prism and analyzing using a variable slope non-linear regression.

[2] = biological target: T1, human CXCR3; experiment: cell-based or functional assay
[3] = biological target: T1, human CXCR3; experiment: cell-based or functional assay; remark: listed apart in the source
[4] = biological target: T2, murine CXCR3 (murine, UniProt O88410 1-367); experiment: flow cytometry, antibody titration on murine B16-F10 cells
T2 construct: whole, on cells; target is the endogenous receptor on B16-F10 cells; also called mur CXCR3
T2 sequence (looked up): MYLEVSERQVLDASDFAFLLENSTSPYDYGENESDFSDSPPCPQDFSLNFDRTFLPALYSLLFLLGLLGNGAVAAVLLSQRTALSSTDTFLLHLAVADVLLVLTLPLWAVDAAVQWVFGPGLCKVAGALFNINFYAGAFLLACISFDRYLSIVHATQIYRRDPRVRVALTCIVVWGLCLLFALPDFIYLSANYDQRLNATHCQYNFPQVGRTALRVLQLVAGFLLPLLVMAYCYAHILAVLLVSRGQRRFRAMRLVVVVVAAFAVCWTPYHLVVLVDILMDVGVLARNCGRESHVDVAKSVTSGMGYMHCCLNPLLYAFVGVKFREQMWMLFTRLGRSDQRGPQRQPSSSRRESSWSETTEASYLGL
Description: In this example, murine B16-F10 cells (ATCC, #CRL-6475) were lifted from culture flasks using non-enzymatic Cell Dissociation Buffer-PBS based (Life Technologies #13151-014). Cells were harvested, washed and resuspended in FACS Buffer (2% Fetal Bovine Serum in PBS) at 1×10⁶ cells/ml and 50 μl (0.5×10⁵ cells) were aliquoted into the wells of a 96-well plate. Plated cells were spun down and the supernatant discarded. Cells were resuspended in 30 μl FACS Buffer serially diluted concentrations of antibody in triplicate. Plates were incubated for 1 hr at 4° C. and then washed 2× with FACS Buffer. Cells were resuspended in 50 μl goat anti-human IgG (γ-chain specific)-PE conjugated secondary antibody (Southern Biotech #2040-09) diluted 1:500 in FACS Buffer. Cells were further incubated for 30 min at 4° C. and then washed 1× with FACS Buffer. The cells were resuspended in a final volume of 30 μl FACS Buffer and analyzed using the Intellicyt Flow Cytometer. Median fluorescence in the FL-2H channel was determined using FlowJo software and the EC₅₀ value was determined by plotting the data in GraphPad Prism and analyzing using a variable slope non-linear regression.

B1: 3C11 (antibody, V domains shown)
VH: EVQLVESGGGLVQPGGSLRLSCSASGFTFSSYAMHWVRQAPGKGLEYVSAISSNGGSTYYADSVKGRFTISRDNSKNTLYLQMSSLRAEDTAVYYCVKSIAAAGTQYYYYYMDVWGKGTTVTVSS
VL: DIQLTQSPSSLSASVGDRVTITCRASQGIGTYLAWFQQKPGKVPKPLIYAASTLQSGVPSRFSGSGSGADFTLTISSLQPEDVATYYCQKYNSVPQTFGQGTKVEIK
notes: Fully human IgG class
EC50 [1]: 0.6 nM

B4: 3A11 (antibody, V domains shown)
VH: QVQLVQSGGGLVKPGGSLRLSCAASGFTFTSSGMNWVRQAPGKGLEWVAYIFPNGKTLYPESVKGRFIITRDNAEKSLFLEMNNLRAEDMGVYYCAIDLNWGSGYWGQGTLVTVSS
VL: SYVLTQPPSVSKGLRQTATLTCTGNINNVGNVGATWLQQHQGHPPKLLSDRNNNRPSGISERFSASRSGNAASLTITGLQPEDEADYYCSAWDTSLGAWVFGGGTKLTVL
notes: Fully human IgG class
EC50 [1]: 1.2 nM

B5: 2A3 (antibody, V domains shown)
VH: QVQLVQSGAEVKKPGSSVKVACKASGGTFSHSAISWVRQAPGQGLEWIGRTIPTLEMASYAQKFQGRVTISADKSTRTGYMELRDLRSEDTAVYYCSTQTPSYTDHWGQGTLVTVSS
VL: DIVMTQTPLSLPVTLGQPASISCRSSQSLVHSDGNTYLNWFQQRPGQSPRRLIYKVSNRDSGVPDRFSGSGSGTDFTLKISRVEAEDVGVYYCMQGTHWPLTFGGGTKVEIK
notes: Fully human IgG class
EC50 [1]: 11 nM

B6: 3A3 (antibody, V domains shown)
VH: QVQLVQSGAEVKKPGSSVKVSCKASGGTFNRYAFSWVRQAPGQGPELMGRIMPMFDIASYAQKFQGRLTITADKSTSTAYMELSSLRSDDTAVYYCTQVSGDSDYWGPGTLVTVSS
VL: B5 VL with S32N, Q42H, S61F, K79R, T97S
notes: Fully human IgG class
EC50 [1]: 0.5 nM

More lines, now with the values ahead:

EC50 [1]: 4 nM
IC50 [nM] in a calcium flux assay using CHO-CXCR3 cells, ligand CXCL11 (60 nM) [2]: 19 nM
IC50 [nM] in a chemotaxis assay using activated T cells, ligand CXCL9 (30 nM) [3]: 2.5 nM
IC50 [nM] in a chemotaxis assay using activated T cells, ligand CXCL10 (12.5 nM) [3]: 0.03 nM
IC50 [nM] in a chemotaxis assay using activated T cells, ligand CXCL11 (0.3 nM) [3]: 3.4 nM
B2: 32D12 (antibody, V domains shown)
VH: EVQLLESGGGLVQPGGSQRLSCAASGFTFSSYPMTWVRQAPGKGLEWVSAISDGGSGTYYADSVKGRFTISRDNSKNTLYLQMNSLRAEDTAIYYCARYKMGGSYRGLDDWGQGTLVTVSS
VL: LPVLTQPASVSGSPGQPITISCTGTSGNIGSYNYVSWYQQHPGKAPRLLIYDVSLRPSGISSHFSGSKSGNTASLTISGLQAEDEAEYFCLSWTSDKTYVFGSGTKLTVL
notes: Fully human IgG class

EC50 [1]: 1 nM
EC50 [4]: 25 nM
IC50 [nM] in a calcium flux assay using CHO-CXCR3 cells, ligand CXCL9 (200 nM) [2]: 37 nM
IC50 [nM] in a calcium flux assay using CHO-CXCR3 cells, ligand CXCL10 (164 nM) [2]: 7 nM
IC50 [nM] in a calcium flux assay using CHO-CXCR3 cells, ligand CXCL11 (60 nM) [2]: 16 nM
IC50 [nM] in a chemotaxis assay using activated T cells, ligand CXCL9 (30 nM) [3]: 0.6 nM
IC50 [nM] in a chemotaxis assay using activated T cells, ligand CXCL10 (12.5 nM) [3]: 0.2 nM
IC50 [nM] in a chemotaxis assay using activated T cells, ligand CXCL11 (0.3 nM) [3]: 0.3 nM
B3: 32B12 (antibody, V domains shown)
VH: EVQLVQSGGGLVKSGRSLRLSCTVSGFTFGNSAMSWFRQAPGKGLEWVSSISSSSSYIYYADSVKGRFTISRDNAKNSLYLQMNSLRAEDTAVYYCARDLSGRGYSYLNYWGQGTLVTVSS
VL: SYELTQPPSVSAAPGQKVTISCSGSSSNIGNSYVSWFQQFPGTAPKLVIYENNKRPSGIPDRFSGSKSGTSATLGITGLQTGDEADYYCGTWDSSLSGRVFGGGTKLTVL
notes: Described as a fully human antibody of an IgG class and detected with anti-human IgG (gamma-chain specific); also called anti-CXCR3 antibody 32B12; clone 32B12

EC50 [1]: 5 nM
B7: F7 (antibody, V domains shown)
VH: B5 VH
VL: B5 VL with S26N, N39Y, S81N, L101N, G105Q, V109L
notes: Fully human IgG class; 31
